Results on two molecules are retold here after paper PMC1369289.

Series [1] has as its target c-Fos model fragment;c-Jun model fragment (Mus musculus?;Mus musculus?, UniProt P01101;P05627 118-212;237-334, |). Description: mRNA display affinity selection, qPCR.
The target in a further series is T1, JunB selected fragment (Mus musculus, UniProt P09450 265-328).
T1 sequence: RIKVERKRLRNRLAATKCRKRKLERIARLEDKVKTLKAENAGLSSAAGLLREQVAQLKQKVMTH
Description: EMSA. (In EMSA bound probe runs differently from free probe, usually more slowly.)

A further series addresses c-Jun selected fragment (Mus musculus, UniProt P05627 255-313). Description: EMSA.
For a further series, the target named is T2, JunD selected fragment (Mus musculus, UniProt P15066 262-325).
T2 sequence: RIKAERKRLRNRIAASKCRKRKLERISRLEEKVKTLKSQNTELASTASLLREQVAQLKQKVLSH
As to the kind of experiment: EMSA.

Sequence of c-Jun selected fragment (P05627 255-313): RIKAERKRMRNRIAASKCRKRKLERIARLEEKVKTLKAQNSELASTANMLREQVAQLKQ
Sequence of c-Fos model fragment;c-Jun model fragment (P01101 118-212, chain 1 of 2): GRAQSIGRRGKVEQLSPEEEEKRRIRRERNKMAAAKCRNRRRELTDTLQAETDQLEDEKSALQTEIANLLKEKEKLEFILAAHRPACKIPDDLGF
Sequence of c-Fos model fragment;c-Jun model fragment (P05627 237-334, chain 2 of 2): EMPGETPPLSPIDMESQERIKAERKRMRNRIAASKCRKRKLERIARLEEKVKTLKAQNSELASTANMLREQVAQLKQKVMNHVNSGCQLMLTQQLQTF

B1: TRE bait DNA (dsDNA)
DNA 1: TGATGACTCATCTCCTATGACTCATCCATTGCATGACTCAGACTTGATGAGTCAGCCGAGCATGAGTCAGACACCTTGCCTGAGCTCAGA
DNA 2: TTCTGAGCTCAGGCAAGGTGTCTGACTCATGCTCGGCTGACTCATCAAGTCTGAGTCATGCAATGGATGAGTCATAGGAGATGAGTCATCA
With B1, in series [1], the binding signal is around 100 fold enrichment.

B2: TRE EMSA probe (dsDNA)
DNA 1: TTCTCCTATGACTCATCCAT
DNA 2: AATGGATGAGTCATAGGAGA
Turning to B2, the binding result with JunB selected fragment, with c-Jun selected fragment and in the series with JunD selected fragment was “binds” in each case.
